The results in this text go back to publication PMC4254523.

What all share (assay): SPR
Assay [1] concerns the target human FcγRII (CD32), CD32A-131H (human) (UniProt P12318).
For assay [2], the target named is human FcγRII (CD32), CD32B (human) (UniProt P31994).
Assay [3] deals with human FcγRII (CD32), CD32A-131R (human).

Chain of UniProt P12318 (P12318 34-317): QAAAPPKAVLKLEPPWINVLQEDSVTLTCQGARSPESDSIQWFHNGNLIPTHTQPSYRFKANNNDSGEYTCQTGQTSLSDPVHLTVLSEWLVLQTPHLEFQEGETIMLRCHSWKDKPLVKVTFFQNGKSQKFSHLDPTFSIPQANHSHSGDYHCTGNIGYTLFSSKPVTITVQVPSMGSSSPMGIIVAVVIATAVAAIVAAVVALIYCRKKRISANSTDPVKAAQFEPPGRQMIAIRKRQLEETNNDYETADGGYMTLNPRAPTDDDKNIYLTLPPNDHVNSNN
Chain of UniProt P31994 (P31994 43-310): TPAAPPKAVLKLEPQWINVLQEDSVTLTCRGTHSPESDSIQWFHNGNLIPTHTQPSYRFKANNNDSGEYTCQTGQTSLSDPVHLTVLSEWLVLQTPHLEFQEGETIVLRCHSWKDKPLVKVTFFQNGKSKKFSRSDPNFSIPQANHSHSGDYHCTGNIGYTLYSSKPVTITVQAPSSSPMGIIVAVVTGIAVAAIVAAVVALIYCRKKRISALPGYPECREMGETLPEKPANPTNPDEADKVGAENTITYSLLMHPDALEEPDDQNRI

In assay [1], hu3F8 (IgG1) (antibody) displayed a Ka of 631000 M⁻¹ and a koff of 0.427 s⁻¹. In assay [2], the Ka came out at 83700 M⁻¹, the koff stood at 0.341 s⁻¹ and the kon is 28600 M⁻¹ s⁻¹.
For the molecule mouse 3F8 (IgG3) (antibody), in assay [1], the Ka worked out at 17300 M⁻¹ and the koff stood at 1.1 s⁻¹. In assay [2], this molecule came in with a Ka of 5660 M⁻¹, a koff of 2.03 s⁻¹ and an on-rate (kon) of 11500 M⁻¹ s⁻¹.

B1: hu3F8 (IgG1) (antibody, V domains shown)
VH: QVQLVESGPGVVQPGRSLRISCAVSGFSVTNYGVHWVRQPPGKGLEWLGVIWAGGITNYNSAFMSRLTISKDNSKNTVYLQMNSLRAEDTAMYYCASRGGHYGYALDYWGQGTLVTVSS
VL: EIVMTQTPATLSVSAGERVTITCKASQSVSNDVTWYQQKPGQAPRLLIYSASNRYSGVPARFSGSGYGTEFTFTISSVQSEDFAVYFCQQDYSSFGQGTKLEIK
In assay [3], B1 came in with a Ka of 368000 M⁻¹, a koff of 0.406 s⁻¹ and an on-rate constant (kon) of 149000 M⁻¹ s⁻¹.

B2: mouse 3F8 (IgG3) (antibody, V domains shown)
VH: QVQLKESGPGLVAPSQSLSITCTVSGFSVTNYGVHWVRQPPGKGLEWLGVIWAGGITNYNSAFMSRLSISKDNSKSQVFLKMNSLQIDDTAMYYCASRGGHYGYALDYWGQGTSVTVSS
VL: SIVMTQTPKFLLVSAGDRVTITCKASQSVSNDVTWYQQKAGQSPKLLIYSASNRYSGVPDRFTGSGYGTAFTFTISTVQAEDLAVYFCQQDYSSFGGGTKLEIK
On to B2, for which, in assay [3], the Ka came to 71500 M⁻¹, the koff was 0.363 s⁻¹ and the kon worked out at 25900 M⁻¹ s⁻¹.
